Results from publication PMC3722453, “N-truncated amyloid β (Aβ) 4-42 forms stable aggregates and induces acute and long-lasting behavioral deficits” (Acta Neuropathologica, 2013).

Assays:
[1] = 1D 1H NMR monomer consumption assay; assay type: physicochemical; conditions: 40 μM peptide, phosphate buffer 20 mM pH 7.2, 25 mM NaCl; after 14 h of incubation at 37 °C; methyl and aromatic 1H signals normalised to DSS
Method: 1D ^1H NMR spectra of the five different Aβ peptides were measured at 5 °C at 400 MHz ^1H Larmor frequency. The samples contained 40-μM peptide in phosphate buffer (20 mM, pH 7.2) with 25-mM NaCl. The aggregation propensity of the Aβ variants were then studied through real-time 1D ^1H NMR experiments at 37 °C continued for 14 h at 1-h intervals. The integrated intensity of ^1H peaks at two regions (0.50–1.05 ppm, 6.50–8.00 ppm), after chemical shift using DSS ([…]) as a reference standard, was then calculated. After normalization by the integrated intensity of the DSS peak at 0 ppm, the relative intensity of the peptide ^1H peaks was used to probe peptide monomer consumption during the early phases of peptide aggregation.

[2] = Transmission electron microscopy (TEM) of aggregates; assay type: physicochemical; conditions: 0.1 mg/mL, HEPES 25 mM pH 7.4, 50 mM NaCl, 3 days at 37 °C with gentle stirring
Method: Peptide samples of 0.1 mg/mL concentration in HEPES buffer (25 mM, pH 7.4, 50 mM NaCl) were incubated at 37 °C with gentle stirring. After 3 days of incubation, samples were diluted, deposited onto carbon-coated copper mesh grids and negatively stained with 2 % (w/v) uranyl acetate. The excess stain was washed away, and the sample grids were allowed to air-dry. The samples were then viewed with a 120-kV transmission electron microscope.

[3] = Far-UV circular dichroism (CD) spectroscopy; assay type: physicochemical; conditions: 0.2 mg/mL, phosphate buffer 20 mM pH 7.2, 20 °C, monomeric state
Method: Samples of 0.2 mg/mL peptide concentration in phosphate buffer (20 mM, pH 7.2) were prepared. The far-UV CD measurements were conducted on a Chirascan CD spectrometer, with a 1-mm path length quartz cell, 1-nm bandwidth and 8-s collection time for each point at 0.5 nm steps between 190 and 260 nm. The buffer spectrum was also measured and subtracted from the spectra of Aβ peptides. The temperature-dependence of secondary structure was studied through far-UV measurements at three different temperatures, 20, 30 and 40 °C. The reversibility of temperature-induced changes was checked with an additional CD spectrum measured after cooling down from 40 to 20 °C. The CD spectrum of the cooled sample was taken after 5 min of equilibration at 20 °C. The 0.2 mg/mL Aβ samples in phosphate buffer (20 mM, pH 7.2) containing 25 mM NaCl were incubated at 37 °C for 3 days with gentle stirring.

[4] = SDS-PAGE Western blot of Aβ peptides (stable aggregates); assay type: physicochemical; conditions: 1 μg peptide, reducing conditions, antiserum 24311; for higher molecular weight oligomers on SDS-PAGE after aging: after 1 and 3 days of aging
Method: Lyophilized Aβ peptides were dissolved in 10-mM NaOH at a concentration of 1 mg/mL, aliquoted in 50 μL volumes, flash-frozen in liquid nitrogen and stored at −80 °C until use. For Western blot analysis under reducing conditions, 1 μg peptides were loaded on 4–12 % VarioGels (Anamed), transferred to 0.45 μm nitrocellulose membranes and detected using the primary antiserum 24311 (pan-Aβ, 1:500) or monoclonal antibody 4G8 (Aβ17-24, Signet; 1:500). For Western blotting of mouse brain, whole brain SDS lysates were used. Running and transfer buffers were applied according to the manufacturer. The blots were developed using enhanced chemiluminescence according to the manufacturer (Roth). Horse radish conjugated swine anti-rabbit antibody was used as a secondary antibody (1:3,000, Dianova).

[5] = test system: primary cortical neurons; assay: Calcein-AM cell viability assay; assay type: cell-based, Wistar rat; conditions: for effect on cell viability: 24 h incubation with freshly prepared peptide at different concentrations, calcein-AM fluorescence; for toxicity profile compared to vehicle control: ANOVA with Bonferroni multiple comparisons
Method: Cortical neurons from embryonic day 16–17 Wistar rat fetuses were prepared as previously described. In brief, dissociated cortical cells were plated at 50,000 cells/well in 48-well plates precoated with 1.5 mg/mL polyornithine (Sigma). Cells were cultured in a chemically defined Dulbecco’s Modified Eagle’s/F12 medium free of serum (Gibco) and supplemented with hormones, proteins and salts. […] At 6 DIV, the medium was removed and cortical neurons were incubated for 24 h with vehicle (cell culture medium) or Aβ peptides (dissolved in cell culture medium) at the indicated concentrations.
Following a 24-h incubation of primary cortical neurons with Aβ peptides, cell viability was determined using a calcein-AM assay (Invitrogen, Molecular Probes). Briefly, cells were washed twice with PBS and incubated to protect from light for 30 min at room temperature in the presence of 2 μM calcein-AM solution prepared in PBS. Cells were then washed twice with PBS and incubated for 15 min at room temperature in PBS containing 1 % Triton X-100 (v/v). The level of calcein fluorescence was monitored by fluorescence emission at 530 nm after exciting at 485 nm, using a Fluostar microplate reader (BMG-Labtechnologies, France).

[6] = test system: C57BL/6 J wildtype mice; assay: Y-maze working memory after intracerebroventricular injection of soluble Aβ; assay type: in vivo, mouse; conditions: 50 pmol in 1 μL icv, male C57BL/6 J mice 12-week old, n = 6 per group, Y-maze on day 4, 5-min session
Method: Male C57BL/6 J mice (12-week old, Janvier, Le Genest-St-Isle, France; n = 6 per treatment group) were housed five to six per cage with free access to food and water, and were kept in a constant environment (22 ± 2 °C, 50 ± 5 % humidity, 12-h light cycle). Under anesthetization, freshly prepared Aβ peptides (50 pmol in 1 μL; 0.1 M phosphate-buffered saline (pH 7.4)) or vehicle (0.1 M phosphate-buffered saline) were injected into the right ventricle, with stereotaxic coordinates from the bregma (AP −0.22, L −1.0 and D 2.5 in mm). Intracerebroventricular (icv) injections were made using a 10-μl Hamilton microsyringe fitted with a 26-gauge needle. Four days following icv infusion of Aβ peptides, working memory was assessed using the Y-maze test.
Immediate spatial working memory performance in male C57BL/6 J wildtype mice (12-week old, Janvier, Le Genest-St-Isle, France; n = 6 per treatment group) was assessed by recording spontaneous alternation behavior in a Y-maze as described previously. The Y-maze task was carried out on day 4 after soluble Aβ application. The maze was made of opaque plexiglas and each arm was 40-cm long, 16-cm high, 9-cm wide and positioned at equal angles. Mice were placed at the end of one arm and allowed to move freely through the maze during a 5-min session. The series of arm entries were recorded visually and arm entry was considered to be completed when the hind paws of the mouse were completely placed in the arm. Alternation was defined as successive entries into the three arms on overlapping triplet sets. The percentage alternation was calculated as the ratio of actual (total alternations) to possible alternations (defined as the number of arm entries minus two), multiplied by 100.

[7] = Dynamic light scattering (DLS) of peptide supernatants; assay type: physicochemical; conditions: DLS at 20 °C, 0.2 mg/mL, phosphate buffer 20 mM pH 7.4, 25 mM NaCl; after 24 h at 37 °C without agitation; supernatant after 16,000g 15 min
Method: DLS experiments were performed at 20 °C on a DynaPro Titan (Wyatt Technology Corp., CA) instrument with a scattering angle of 90°. The samples were centrifuged at 16,000g for 15 min, and then the supernatant was taken for DLS measurements. The “monomeric” samples were prepared freshly in phosphate buffer (20 mM, pH 7.4) containing 25 mM NaCl at a peptide concentration of 0.2 mg/mL. The aggregated samples were prepared after incubation at 37 °C for 24 h, without further promotion of aggregation by agitation. The size distribution was determined by a constrained regularization method. The reported scattering intensities are from three separate measurements of the same sample.

Substance	loss of initial 1H NMR signal intensity (monomer consumption) [1]	aggregate morphology by TEM [2]	secondary structure by far-UV CD spectrum [3]	higher molecular weight oligomers on SDS-PAGE after aging [4]	species on SDS-PAGE, freshly dissolved peptides [4]	effect on cell viability [5]	working memory (Y-maze alternation rate) [6]	toxicity profile compared to vehicle control ([5]; 24 h incubation, calcein-AM)	hydrodynamic radius of small (main) aggregates [7]	toxicity compared with Aβ4-40 at 5 μM ([5]; 24 h incubation, 5 μM, calcein-AM)
Aβ4-40: amyloid β (Aβ) variant, N-truncated, purchased from PSL	around 5%	clumps of fibrillar aggregates	unstructured in the monomeric state	not	monomers, dimers but no other oligomers	dose-dependent reduction in cell viability	significantly reduced			
Aβ4-38: amyloid β (Aβ) variant, N-truncated, purchased from PSL	rose slightly in intensity	clumps of fibrillar aggregates	unstructured in the monomeric state	not	monomers, dimers but no other oligomers	dose-dependent reduction in cell viability	behaved like vehicle controls and learned well	only toxic at 10 μM		
Aβ1-42: full-length amyloid β 1-42, purchased from PSL [reference compound]	around 5%		unstructured in the monomeric state	higher molecular weight oligomers in addition	monomers and aggregates most likely representing trimer/tetramers	dose-dependent reduction in cell viability	performed at chance level and showed a significant and robust deficit in working memory	strongest toxic effect	5–10 nm	more potent than Aβ4-40
